What was measured:
Assay in all cases: BLI
[1] = target: H3 stem with T32HA2 (influenza A virus H3N2 …)
[2] = target: H3 stem with R32HA2 (influenza A virus H3N2 …)
[3] = target: H3 stem with I32HA2 (influenza A virus H3N2 …)

B1: 240-14 IgA 2F02 Fab (Fab, V domains shown)
VH: EVQLLESGGGLVQPGGSLRLSCAASGFTFSTYAMSWVRQAPGKGLEWVSTISGSGGSTYDAESVKGRFTISRDNSKNTLYLQMNSLRAEDTAVYYCAKEGGDFWSGYYANWFDPWGQGTLVTVSS
VL: QSALTQPRSVSGSPGQSVTISCTGTRSDVGGYNYVSWYQQHPGKAPKVIIYDVKKRPSGVPDRFSGSKSGNTASLTISGLQAEDEADYYCSAFAGSHTLFGGGTKVTVL
With B1 the Kd [1] was 17 nM, the Kd [2] was 28 nM and the Kd [3] was 22 nM.

Reference: PMC12658140 (2025)
